# Assay: label from the status in PepcDB records
row,Sequence,protein production
1,MRKAWVKTLALDRVSNTPVVILGIEGTNRVLPIWIGACEGHALALAMEKMEFPRPLTHDLLLSVLESLEARVDKVIIHSLKDNTFYATLVIRDLTYTDEEDEEAALIDIDSRPSDAIILAVKTGAPIFVSDNLVEKHSIELEVNETQDEEEEFKKFVENLNIDTFKQMIEKKREEDEEGES,not failed
2,MRKEIRFSGFGGQGIILAGVILGRAASLYAGKEAVQTQSYGPEARGGASKSEVVISEIEIDFPKVIQPDILISMSQPAFDKYGYDLKENARVIVDRDLVNLPEGYEEKYEVYKVPFTEIANKEVGLGIVANIVMLGALTKLSGLVPKEEVEKALLDSIPKGTEKKNLMAFEKGYEYL,not failed
3,MRKILEKVRRNRTYSFGKDLYDRTMRDDVAGLAAQLAYFFLLAIFPGLVFLITLLGFIDLQTESVLNLLEPYVPEDAMSLIEVNVDKVVNEQNGGLLSFGLLSMLWFASNGVNAVMNAFNRAYDVTETRSFIKTRALSIVFTLAIIFMIVFALIVPVFGQVIGAAVFKAIGLSDSFSYVWSITRLVASFFVLFALFSFLYTFAPDRKLKRREVISGATFATVGWIVVSYSFAYYVDKFANYANTYGGLGGIIILMLWFYLTGWVILLGGEINGLLHHYRTGDNNSRNEK,failed
4,MRKLDICIKSGLHFRTHRQHPDDDSVKTLTLECVDPQMVPVPRHWGRLAHRLLERAMTQATRPLPPPDGMGPTYRKILWRLIPFLFVCNLFNYLDRVNVGFAKLQMLRDLGMSQTVYGLGAGIFFIGYLACGVPSNLILQRIGARRWVAIMMVSWGLLSTCLLFVRTPAGFYTLRLLTGAAEAGFFPGILLYLTRWFPRDRHGRVTTVFMSAIPISGVLGGPLSGWILGYFSAGQGGLAGWQWMFLLQGLPTVLLGNGVWFLLSDGVQEASWLNPQEKQALARVLADDEAGKPAGASTSLRAVLCNPAVWLLGTVYFCIQSGVYAINFWLPSIIQDSGVTDPVRIGLMSAIPYLAAAVFMVLMGRSADRRGERRWHLVIPLLMGAAGLCIAASVTDNLGLALFGMTLATMGAVSGLPLFWPLTNGFLTAAAAAGGLALINSTGQVAGFVSPYLVGWIKDTTHSTQLALYVLAGAMLLGAALVLRVPACAVNQ,failed
5,MRKLISIFLILCTFLLCGCSDVKHELNRLSLVLCSGIDLSEDGRYIYTVEILNVGASSPQSSGKQGASPSINVFSSEGHTITEAFNNASVLSGEPLFFAHSRMVVVGERLAKYGLSDMMDKLFRHYTIRPDGLIFVTKGNARDIVSTYTPDQPLPAEKLRTMSMLQEMTGYSISYSRLDLVKALTSKSHAGAIGLISLRPDQKFSNRFNMYGAGVFKKDKLVGYLDTYETRGLQWVTGHISSGSILVPLPDGKRIVFDIIDSKSKIKTKVNGNKLTMEINVAEESLISETNDKTNVMKHYKEMNKLAKLESEAIKKEVSSALAASQDRLKTDIFGFGSEIYRDNPKYWKTVENNWDNIFPNVNVKINVKCIVRRPGLTSQPII,failed
6,MRKLRKLLLFSTVLFVVFTQLFGFIITVDAAETATINLSAEKQVIRGFGGMNHPVWISDLTPQQRDTAFGNGEGQLGFTILRIHVDENRNNWSKEVATARRAIELGAIVFASPWNPPSNMVETFTRNGVPNQKRLRYDKYGDYVQHLNDFVAYMKSNGVDLYAISVQNEPDYAHEWTWWTPQEMLRFMRDYAGQINCRVMAPESFQYLKNMSDPILNDPQALANLDILGAHFYGTTVNNMPYPLFEQKGAGKELWMTEVYVPNSDSNSADRWPEALEVAHNMHNALVEGNFQAYVWWYIRRSYGPMKEDGTISKRGYMMAHYSKFVRPGYVRVDATKNPTYNVYLSAYKNKKDNSVVAVVINKSTEAKTINISVPGTSIRKWERYVTTGSKNLRKESDINASGTTFQVTLEPQSVTTFVGGGSSEPQIPVERNAFSKIECEEYNATNSSTVQVVGTGTGSGLGYIENGNYFAYKNINFGNGANSFKIRAATTGTPKIEIRLGSPTGTLAGTLQVAATGGFNAYEEQSCSINKITGVQDVYLVFGGAVNVDWFTFESKQEPTFKYGDLNGDGNVNSTDSTLMSRYLLGIITTLPAGEKAADLNGDGKVNSTDYNILKRYLLKYIDKFPVES,failed
7,MRKLTALFVASTLALGAANLAHAADTTTAAPADAKPMMHHKGKFGPHQDMMFKDLNLTDAQKQQIREIMKGQRDQMKRPPLEERRAMHDIIASDTFDKVKAEAQIAKMEEQRKANMLAHMETQNKIYNILTPEQKKQFNANFEKRLTERPAAKGKMPATAELEHHHHHH,not failed
8,MRKNDIADISPRDPMLALVLLTRLPLPALPEAAFARQAAAVWAFPLAGLAVGALAWATGALALAAGLAPVAVAGLMLVVLVMTTGGMHEDGLADTADGLWGGFTPERRLEIMKDSHIGTYGVLALILSQGLRLAALSALVAGGALGAAVAAAVWSRALMPVLMAALPNARGTGLSQSVGRPTPQAVTLGLGLAAVLALLLAGWAVLIPALLAVLSVLGLAALARAKIGGQTGDILGAAQQLAEITCLLALSAAL,failed
9,MRKPIEHTADIAYEISGNSYEELLEEARNILLEEEGIVLDTEEKEKMYPLEETEDAFFDTVNDWILEISKGWAPWRIKREGNELKVTFRKIRKKEGTEIKALTYHLLKFERDGDVLKTKVVFDT,not failed
10,MRKRIEWIDIAKGSAILAVVIGHTLGPYNGQFFGSLIFAFHMPIFFMLSGYLYRSRPARQECQRGIINLLLPYLATAVVLLVVSAIARLLPNPLLNAYFPSWRQGLIATAYGAGSAVFNPWHWQVQPIGAVWFLLSMFIALQLFNGVMLLTARRHQRWRQAIVRGGVFAIFAILGGWLGHAAYLPWAVNAALLAQLFLYAGYLVKQTALLSRISSAWYLLFTFMWLVSAFQGYFALTVPTSPNLLISVMGGVAGSLCIIRVSDWLSHYPNARPIKWLKRYGQLSLVVLCFHLIDLNVIGIEGWLTNHLITHMGPLVTTIIAISYRIGFVTVAMLAIPHLPGIRACFLPRQYLFRRLQRR,failed
11,MRKRNPRRATPEELRVCSVLKEKGTREELAHLAARGEWSNVPAYNASREQIADHLGKSVSPESDASFFDSRRFSEAIVLLKSRPVLLVKNGIFDEAPLAGLEQRLKKHRAALATPIRSVGRLELIDHDSMDWCGTGWRIEDDLIVTNRHVASLFAERQGSLFRFRLNQAGKQVRTRVDFREEYRQPESDEHVIARVLWIAPDVSEAPDMAILQVVKGDLLPPPLVLARQDAEPRQAVAVVGYPARDSRNDAGAMEDIFGNIYDVKRFAPGEVVGLPHDAWYLTHDCSTLGGNSGSAVLSIDGGEVVGLHFGGQFRKTNYAVKASVIRSLLARRAWVPVAGAELKRGVPRFQEKQRSVADLAERKGFDEAFLGPKAALPKPGKSHQVLPVGKGTRLDYLHFSVVMSASRRLPILTAVNIDGALKRSLKRKDSWGFDPRIEAAAQVGHKDFYGPASFDKGHMVRREDPGWGDSDAVARQAEDDTFVYTNAVPQVAQLNQRSWLSLEDYVLQNARSEGFRISVFTGPVFRDDDPLYQGVQVPLEFWKVVAMIDADSGELGVSAYLLGQEGMMPSEGFRYGAFKTYQVPLAKVEASADLRFSSALRKADVLAGTPLEEALESGRFIEIDGPDDLLLSRPGPAGKGPLRFRPAAATRVAVR,failed
12,MRKTPSHTEKKMVYSIRSLKNGTGSVLIGASLVLLAMATPTISSDESTPTTNEPNNRNTTTLAQPLTDTAAGSGKNESDISSPGNANASLEKTEEKPAASPADPAPQTGQDRSSEPTTSTSPVTTETKAEEPIEDNYFRIHVKKLPEENKDAQGLWTWDDVEKPSENWPNGALSFKDAKKDDYGYYLDVKLKGEQAKKISFLINNTAGKNLTGDKSVEKLVPKMNEAWLDQDYKVFSYEPQPAGTVRVNYYRTDGNYDKKSLWYWGDVKNPSSAQWPDGTDFTATGKYGRYIDIPLNEAAREFGFLLLDESKQGDDVKIRKENYKFTDLKNHSQIFLKDDDESIYTNPYYVHDIRMTGAQHVGTSSIESSFSTLVGAKKEDILKHSNITNHLGNKVTITDVAIDEAGKKVTYSGDFSDTKHPYTVSYNSDQFTTKTSWRLKDETYSYDGKLGADLKEEGKQVDLTLWSPSADKVSVVVYDKNDPDKVVGTVALEKGERGTWKQTLDSTNKLGITDFTGYYYQYQIERQGKTVLALDPYAKSLAAWNSDDSKIDDAHKVAKAAFVDPAKLGPQDLTYGKIHNFKTREDAVIYEAHVRDFTSDPAIAKDLTKPFGTFEAFIEKLDYLKDLGVTHIQLLPVLSYYFVNELKNHERLSDYASSNSNYNWGYDPQNYFSLTGMYSSDPKNPEKRIAEFKNLINEIHKRGMGAILDVVYNHTAKVDLFEDLEPNYYHFMDADGTPRTSFGGGRLGTTHHMTKRLLIDSIKYLVDTYKVDGFRFDMMGDHDAASIEEAYKAARALNPNLIMLGEGWRTYAGDENMPTKAADQDWMKHTDTVAVFSDDIRNNLKSGYPNEGQPAFITGGKRDVNTIFKNLIAQPTNFEADSPGDVIQYIAAHDNLTLFDIIAQSIKKDPSKAENYAEIHRRLRLGNLMVLTAQGTPFIHSGQEYGRTKQFRDPAYKTPVAEDKVPNKSHLLRDKDGNPFDYPYFIHDSYDSSDAVNKFDWTKATDGKAYPENVKSRDYMKGLIALRQSTDAFRLKSLQDIKDRVHLITVPGQNGVEKEDVVIGYQITAPNGDIYAVFVNADEKAREFNLGTAFAHLRNAEVLADENQAGPVGIANPKGLEWTEKGLKLNALTATVLRVSQNGTSHESTAEEKPDSTPSKPEHQNEASHPAHQDPAPEARPDSTKPDAKVADAENKPSQATADSQAEQPAQEAQASSVKEAVRNESVENSSKENIPATPDKQAELPNTGIKNENKLLFAGISLLALLGLGFLLKNKKEN,failed
13,MRKVLVTVLLVLTVLSLFSAVKIAVILPMTGGISAFGRMVWEGIQIAHEEKPTVLGEEVELVLLDTRSEKTEAANAAARAIDKEKVLAIIGEVASAHSLAIAPIAEENKVPMVTPASTNPLVTQGRKFVSRVCFIDPFQGAAMAVFAYKNLGAKRVVVFTDVEQDYSVGLSNFFINKFTELGGQVKRVFFRSGDQDFSAQLSVAMSFNPDAIYITGYYPEIALISRQARQLGFTGYILAGDGADAPELIEIGGEAVEGLLFTTHYHPKAASNPVAKKFVEVYKEKYGKEPAALNALGYDAYMVLLDAIERAGSFDREKIAEEIRKTRNFNGASGIINIDENGDAIKSVVVNIVKNGSVDFEAVINPDDLK,not failed
14,MRLGPAATSPSSGPRILPPAAHGDPRTAALPRATHLQIHDRRALSGLRDHPHLESVHLKGDFTLADLKALPTTLRHLDLSECTGSAKSFRAIAYLAGLPLESLNVAGAEIGDGGARLLAANPSLKSLNAASGGISASGARMLAESPTLESLDLTQNAIGDAGAQALAGSRSLRHLAVRNGLVTDLGTRALALNPALVSLDLGNLVTETGNQVEQDGYDKTANNITAQGAWALAQNRSLKSLSVQGNDLCGDDGVRALARNRTLTSLNVAFTNMTSASAKALADNPVLTSLSVRWNYGLDDAGAMELAMSRSLTSLDARDTGMSARGALALAANARISVWHDHANPVRAPLGEPPLSGLAGDPGQASRTAPGGAIWSSAAQARHVSAEAPANSAMTASTREGFALIDPFFNRVARESGLNVQAPQEMPWTRLRPSASEANHGNAGAHGASAEGLASSRMAASIREGLGLIDQYVDRMGREYGLPVRAPAAQPDSAAPEATQPTLPADVWQTIAAQADPRVRRTLSTVSKPLRAAALAATKHLTVWDKAAFSRLRNYPALESLSFHGPLSLADLRALPPSVRHLDLSGCTGSAVSEAGLAYLARLPLASLDLSDTGIGNRGAQALAASASLTSLNLSGNGIGTAGAEALGRNTVLTALDISANPIRNAGAQALAGSRSLTSLELRDTGIEDGGIEALAANTVLRSLDISGNDLSDQSAAALAANRTLTSLKANGCGLTNDMAQQLARIRSLRTLEVGSNSIGDAGVLTIARNASLRSLNLSRNPITPQGLYPLALSRTLKSLDVSRIGCGDRGALLLSGNRALTSLKLGFNRVSSEGARRLAANRTLVSLDLRGNTIDVAAARALANAEPLASLNVSDCRLDDAVACALAESRTLTSLDVSWNRLSHRAARALANNPVLASLYISHNDIGPEGAQALADSASLTFLDARANRIGEAGARLLEANTRMRGTPQNPHFLAQDVPE,failed
15,MRLISKPVLCNYYVTYRCNATCGFCDIWEKPSPYVTPEAVEQNMRDLKKLGVKVIDFTGGEPLLHREMDTLLRIAKKYGMITTLTTNALLYPKWAERLKGLIDMLHFSLDSPDKAEHDTLRGVACFDFVLESIEKAKALG,failed

# Reference: a protein production outcome set (Wang et al. 2014)
